# Article PMC8417553 (2021)
# Target: CCL11 (eotaxin-1) 24-97 (Homo sapiens, UniProt P51671)
# Assay: fluorescence polarization
# Sequence of CCL11 (eotaxin-1) 24-97 (P51671 24-97): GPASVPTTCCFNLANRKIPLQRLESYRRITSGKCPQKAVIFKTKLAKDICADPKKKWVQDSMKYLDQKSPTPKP
row,Binder,Kd [nM]
1,"CCR3 (protein, FITC-labeled CCL11, POPC SMALPs with 30% cholesterol) MTTSLDTVETFGTTSYYDDVGLLCEKADTRALMAQFVPPLYSLVFTVGLLGNVVVVMILIKYRRLRIMTNIYLLNLAISDLLFLVTLPFWIHYVRGHNWVFGHGMCKLLSGFYHTGLYSEIFFIILLTIDRYLAIVHAVFALRARTVTFGVITSIVTWGLAVLAALPEFIFYETEELFEETLCSALYPEDTVYSWRHFHTLRMTIFCLVLPLLVMAICYTGIIKTLLRCPSKKKYKAIRLIFVIMAVFFIFWTPYNVAILLSSYQSILFGNDCERSKHLDLVMLVTEVIAYSHCCMNPVIYAFVGERFRKYLRHFFHRHLLMHLGRYIPFLPSEKLERTSSVSPSTAEPELSIVF",30
2,"CCR3 (protein, FITC-labeled CCL11, proteoliposomes with 60% cholesterol) MTTSLDTVETFGTTSYYDDVGLLCEKADTRALMAQFVPPLYSLVFTVGLLGNVVVVMILIKYRRLRIMTNIYLLNLAISDLLFLVTLPFWIHYVRGHNWVFGHGMCKLLSGFYHTGLYSEIFFIILLTIDRYLAIVHAVFALRARTVTFGVITSIVTWGLAVLAALPEFIFYETEELFEETLCSALYPEDTVYSWRHFHTLRMTIFCLVLPLLVMAICYTGIIKTLLRCPSKKKYKAIRLIFVIMAVFFIFWTPYNVAILLSSYQSILFGNDCERSKHLDLVMLVTEVIAYSHCCMNPVIYAFVGERFRKYLRHFFHRHLLMHLGRYIPFLPSEKLERTSSVSPSTAEPELSIVF",11
3,"CCR3 (protein, FITC-labeled CCL11, proteoliposomes with 40% cholesterol) MTTSLDTVETFGTTSYYDDVGLLCEKADTRALMAQFVPPLYSLVFTVGLLGNVVVVMILIKYRRLRIMTNIYLLNLAISDLLFLVTLPFWIHYVRGHNWVFGHGMCKLLSGFYHTGLYSEIFFIILLTIDRYLAIVHAVFALRARTVTFGVITSIVTWGLAVLAALPEFIFYETEELFEETLCSALYPEDTVYSWRHFHTLRMTIFCLVLPLLVMAICYTGIIKTLLRCPSKKKYKAIRLIFVIMAVFFIFWTPYNVAILLSSYQSILFGNDCERSKHLDLVMLVTEVIAYSHCCMNPVIYAFVGERFRKYLRHFFHRHLLMHLGRYIPFLPSEKLERTSSVSPSTAEPELSIVF",20
